Target: Human PSMA on prostate cancer cell lines (C4-2B, 22RV1) (human, UniProt Q04609 1-750)
Test: cell-based or functional assay

Sequence of Human PSMA on prostate cancer cell lines (C4-2B, 22RV1) (Q04609 whole entry): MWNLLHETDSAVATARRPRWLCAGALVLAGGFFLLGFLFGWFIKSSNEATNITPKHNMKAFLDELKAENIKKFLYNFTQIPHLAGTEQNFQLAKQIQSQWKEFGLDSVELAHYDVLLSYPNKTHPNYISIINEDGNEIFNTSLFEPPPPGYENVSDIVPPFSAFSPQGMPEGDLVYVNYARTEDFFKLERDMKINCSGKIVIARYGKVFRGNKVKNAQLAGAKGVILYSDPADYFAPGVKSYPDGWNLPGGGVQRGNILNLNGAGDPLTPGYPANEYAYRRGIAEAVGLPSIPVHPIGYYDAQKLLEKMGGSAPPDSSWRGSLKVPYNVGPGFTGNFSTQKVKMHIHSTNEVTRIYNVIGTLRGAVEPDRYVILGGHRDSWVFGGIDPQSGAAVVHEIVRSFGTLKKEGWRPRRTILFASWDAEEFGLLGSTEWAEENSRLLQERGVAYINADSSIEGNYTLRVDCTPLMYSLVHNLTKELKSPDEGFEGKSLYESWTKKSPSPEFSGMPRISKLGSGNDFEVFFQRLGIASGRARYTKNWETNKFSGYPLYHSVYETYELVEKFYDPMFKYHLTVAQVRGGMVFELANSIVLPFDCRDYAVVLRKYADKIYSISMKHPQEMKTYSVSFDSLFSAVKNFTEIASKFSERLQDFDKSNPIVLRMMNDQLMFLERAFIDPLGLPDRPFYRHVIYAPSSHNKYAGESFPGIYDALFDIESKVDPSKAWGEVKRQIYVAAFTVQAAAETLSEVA

| Binder | Cytotoxicity (C4-2B cells, 3:1 E:T ratio, 5 Day) at 3.3 nM | Cytotoxicity (C4-2B cells, 3:1 E:T ratio, 5 Day) at 10 nM | Cytotoxicity (C4-2B cells, 3:1 E:T ratio, 5 Day) at 30 nM | Cytotoxicity (C4-2B cells, 3:1 E:T ratio, 5 Day) at 0.3 nM | Cytotoxicity (C4-2B cells, 3:1 E:T ratio, 5 Day) at 1.1 nM |
| --- | --- | --- | --- | --- | --- |
| PS3B1354 (bispecific antibody, human IgG1, lambda, L234A L235A) heavy 1: QVQLQQSGPRLVRPSQTLSLTCAISGDSVFNNNAAWSWIRQSPSRGLEWLGRTYYRSKWLYDYAVSVKSRITVNPDTSRNQFTLQLNSVTPEDTALYYCARGYSSSFDYWGQGTLVTVSSASTKGPSVFPLAPSSKSTSGGTAALGCLVKDYFPEPVTVSWNSGALTSGVHTFPAVLQSSGLYSLSSVVTVPSSSLGTQTYICNVNHKPSNTKVDKKVEPKSCDKTHTCPPCPAPEAAGGPSVFLFPPKPKDTLMISRTPEVTCVVVSVSHEDPEVKFNWYVDGVEVHNAKTKPREEQYNSTYRVVSVLTVLHQDWLNGKEYKCKVSNKALPAPIEKTISKAKGQPREPQVYTLPPSREEMTKNQVSLTCLVKGFYPSDIAVEWESNGQPENNYKTTPPVLDSDGSFLLYSKLTVDKSRWQQGNVFSCSVMHEALHNHYTQKSLSLSPGK light 1: QSALTQPASVSGSPGQSITISCTGTSSNIGTYKFVSWYQQHPDKAPKVLLYEVSKRPSGVSSRFSGSKSGNTASLTISGLQAEDQADYHCVSYAGSGTLLFGGGTKLTVLGQPKAAPSVTLFPPSSEELQANKATLVCLISDFYPGAVTVAWKADSSPVKAGVETTTPSKQSNNKYAASSYLSLTPEQWKSHRSYSCQVTHEGSTVEKTVAPTECS heavy 2: EVQLVESGGGLVQPGGSLRLSCAASGFTFSSYAMSWVRQAPGKGLEWVSAISGGSGSTYYADSVKGRFTISRDNSKNTLYLQMNSLRAEDSAVYYCAKDGVGATPYYFDYWGQGTLVTVSSASTKGPSVFPLAPSSKSTSGGTAALGCLVKDYFPEPVTVSWNSGALTSGVHTFPAVLQSSGLYSLSSVVTVPSSSLGTQTYICNVNHKPSNTKVDKKVEPKSCDKTHTCPPCPAPEAAGGPSVFLFPPKPKDTLMISRTPEVTCVVVSVSHEDPEVKFNWYVDGVEVHNAKTKPREEQYNSTYRVVSVLTVLHQDWLNGKEYKCKVSNKALPAPIEKTISKAKGQPREPQVYTLPPSREEMTKNQVSLTCLVKGFYPSDIAVEWESNGQPENNYKTTPPVLDSDGSFFLYSRLTVDKSRWQQGNVFSCSVMHEALHNHYTQKSLSLSPGK light 2: QSVLTQPPSVSAAPGQKVTISCSGSSSNIGNNYVSWYQQLPGTAPKLLIYDNNKRPSGIPDRFSGSKSGTSATLGITGLQTGDEADYYCGTWDSSLSAYVFGTGTKVTVLGQPKAAPSVTLFPPSSEELQANKATLVCLISDFYPGAVTVAWKADSSPVKAGVETTTPSKQSNNKYAASSYLSLTPEQWKSHRSYSCQVTHEGSTVEKTVAPTECS | 30% | 72% | 84% | – | – |
| PSMB937 (bispecific antibody, human IgG1, lambda, L234A L235A) heavy 1: QVQLQQSGPGLVKPSQTLSLTCAISGDSVFNNNAAWSWIRQSPSRGLEWLGRTYYRSKWLYDYAVSVKSRITINPDTSKNQFSLQLNSVTPEDTAVYYCARGYSSSFDYWGQGTLVTVSSASTKGPSVFPLAPSSKSTSGGTAALGCLVKDYFPEPVTVSWNSGALTSGVHTFPAVLQSSGLYSLSSVVTVPSSSLGTQTYICNVNHKPSNTKVDKKVEPKSCDKTHTCPPCPAPEAAGGPSVFLFPPKPKDTLMISRTPEVTCVVVSVSHEDPEVKFNWYVDGVEVHNAKTKPREEQYNSTYRVVSVLTVLHQDWLNGKEYKCKVSNKALPAPIEKTISKAKGQPREPQVYTLPPSREEMTKNQVSLTCLVKGFYPSDIAVEWESNGQPENNYKTTPPVLDSDGSFLLYSKLTVDKSRWQQGNVFSCSVMHEALHNHYTQKSLSLSPG light 1: QSALTQPASVSGSPGQSITISCTGTSSNIGTYKFVSWYQQHPGKAPKVMIYEVSKRPSGVSNRFSGSKSGNTASLTISGLQAEDEADYYCVSYAGSGTLLFGGGTKLTVLGQPKAAPSVTLFPPSSEELQANKATLVCLISDFYPGAVTVAWKADSSPVKAGVETTTPSKQSNNKYAASSYLSLTPEQWKSHRSYSCQVTHEGSTVEKTVAPTECS heavy 2: EVQLVESGGGLVQPGGSLRLSCAASGFTFSSYAMSWVRQAPGKGLEWVSAISGGSGSTYYADSVKGRFTISRDNSKNTLYLQMNSLRAEDSAVYYCAKDGVGATPYYFDYWGQGTLVTVSSASTKGPSVFPLAPSSKSTSGGTAALGCLVKDYFPEPVTVSWNSGALTSGVHTFPAVLQSSGLYSLSSVVTVPSSSLGTQTYICNVNHKPSNTKVDKKVEPKSCDKTHTCPPCPAPEAAGGPSVFLFPPKPKDTLMISRTPEVTCVVVSVSHEDPEVKFNWYVDGVEVHNAKTKPREEQYNSTYRVVSVLTVLHQDWLNGKEYKCKVSNKALPAPIEKTISKAKGQPREPQVYTLPPSREEMTKNQVSLTCLVKGFYPSDIAVEWESNGQPENNYKTTPPVLDSDGSFFLYSRLTVDKSRWQQGNVFSCSVMHEALHNHYTQKSLSLSPG light 2: QSVLTQPPSVSAAPGQKVTISCSGSSSNIGNNYVSWYQQLPGTAPKLLIYDNNKRPSGIPDRFSGSKSGTSATLGITGLQTGDEADYYCGTWDSSLSAYVFGTGTKVTVLGQPKAAPSVTLFPPSSEELQANKATLVCLISDFYPGAVTVAWKADSSPVKAGVETTTPSKQSNNKYAASSYLSLTPEQWKSHRSYSCQVTHEGSTVEKTVAPTECS | – | – | 41% | – | – |
| PS3B1355 (bispecific antibody, human IgG1, lambda, L234A L235A) heavy 1: QVQLQQSGPRLVRPSQTLSLTCAISGDSVFNNNAAWSWIRQSPSRGLEWLGRTYYRSKWLYDYAVSVKSRITVNPDTSRNQFTLQLNSVTPEDTALYYCARGYSSSFDYWGQGTLVTVSSASTKGPSVFPLAPSSKSTSGGTAALGCLVKDYFPEPVTVSWNSGALTSGVHTFPAVLQSSGLYSLSSVVTVPSSSLGTQTYICNVNHKPSNTKVDKKVEPKSCDKTHTCPPCPAPEAAGGPSVFLFPPKPKDTLMISRTPEVTCVVVSVSHEDPEVKFNWYVDGVEVHNAKTKPREEQYNSTYRVVSVLTVLHQDWLNGKEYKCKVSNKALPAPIEKTISKAKGQPREPQVYTLPPSREEMTKNQVSLTCLVKGFYPSDIAVEWESNGQPENNYKTTPPVLDSDGSFLLYSKLTVDKSRWQQGNVFSCSVMHEALHNHYTQKSLSLSPGK light 1: QSALTQPASVSGSPGQSITISCTGTSSNIGTYKFVSWYQQHPDKAPKVLLYEVSKRPSGVSSRFSGSKSGNTASLTISGLQAEDQADYHCVSYAGSGTLLFGGGTKLTVLGQPKAAPSVTLFPPSSEELQANKATLVCLISDFYPGAVTVAWKADSSPVKAGVETTTPSKQSNNKYAASSYLSLTPEQWKSHRSYSCQVTHEGSTVEKTVAPTECS heavy 2: EVQLVESGGGLVQPGGSLRLSCAASGFTFSSYAMSWVRQAPGKGLEWVSAISGGSGSTYYADSVKGRFTISRDNSKNTLYLQMNSLRAEDSAVYYCAKDGVGATPYYFDYWGQGTLVTVSSASTKGPSVFPLAPSSKSTSGGTAALGCLVKDYFPEPVTVSWNSGALTSGVHTFPAVLQSSGLYSLSSVVTVPSSSLGTQTYICNVNHKPSNTKVDKKVEPKSCDKTHTCPPCPAPEAAGGPSVFLFPPKPKDTLMISRTPEVTCVVVSVSHEDPEVKFNWYVDGVEVHNAKTKPREEQYNSTYRVVSVLTVLHQDWLNGKEYKCKVSNKALPAPIEKTISKAKGQPREPQVYTLPPSREEMTKNQVSLTCLVKGFYPSDIAVEWESNGQPENNYKTTPPVLDSDGSFFLYSRLTVDKSRWQQGNVFSCSVMHEALHNHYTQKSLSLSPGK light 2: QSVLTQPPSVSAAPGQKVTISCSGSSSNIGINYVSWYQQLPGTAPKLLIYDNNKRPSGIPDRFSGSKSGTSATLGITGLQTGDEADYYCGTWDSSLSAVVFGGGTKLTVLGQPKAAPSVTLFPPSSEELQANKATLVCLISDFYPGAVTVAWKADSSPVKAGVETTTPSKQSNNKYAASSYLSLTPEQWKSHRSYSCQVTHEGSTVEKTVAPTECS | 96% | 95% | 94% | 92% | 97% |
| PS3B1358 (bispecific antibody, human IgG1, lambda, L234A L235A) heavy 1: QVQLQQSGPGLVKPSQTLSLTCAISGDSVFNNNAAWSWIRQSPSRGLEWLGRTYYRSKWLYDYAVSVKSRITINPDTSKNQFSLQLNSVTPEDTAVYYCARGYSSSFDYWGQGTLVTVSSASTKGPSVFPLAPSSKSTSGGTAALGCLVKDYFPEPVTVSWNSGALTSGVHTFPAVLQSSGLYSLSSVVTVPSSSLGTQTYICNVNHKPSNTKVDKKVEPKSCDKTHTCPPCPAPEAAGGPSVFLFPPKPKDTLMISRTPEVTCVVVSVSHEDPEVKFNWYVDGVEVHNAKTKPREEQYNSTYRVVSVLTVLHQDWLNGKEYKCKVSNKALPAPIEKTISKAKGQPREPQVYTLPPSREEMTKNQVSLTCLVKGFYPSDIAVEWESNGQPENNYKTTPPVLDSDGSFLLYSKLTVDKSRWQQGNVFSCSVMHEALHNHYTQKSLSLSPGK light 1: QSALTQPASVSGSPGQSITISCTGTSSNIGTYKFVSWYQQHPGKAPKVMIYEVSKRPSGVSNRFSGSKSGNTASLTISGLQAEDEADYYCVSYAGSGTLLFGGGTKLTVLGQPKAAPSVTLFPPSSEELQANKATLVCLISDFYPGAVTVAWKADSSPVKAGVETTTPSKQSNNKYAASSYLSLTPEQWKSHRSYSCQVTHEGSTVEKTVAPTECS heavy 2: EVQLVESGGGLVQPGGSLRLSCAASGFTFSSYAMSWVRQAPGKGLEWVSAISGGSGSTYYADSVKGRFTISRDNSKNTLYLQMNSLRAEDSAVYYCAKDGVGATPYYFDYWGQGTLVTVSSASTKGPSVFPLAPSSKSTSGGTAALGCLVKDYFPEPVTVSWNSGALTSGVHTFPAVLQSSGLYSLSSVVTVPSSSLGTQTYICNVNHKPSNTKVDKKVEPKSCDKTHTCPPCPAPEAAGGPSVFLFPPKPKDTLMISRTPEVTCVVVSVSHEDPEVKFNWYVDGVEVHNAKTKPREEQYNSTYRVVSVLTVLHQDWLNGKEYKCKVSNKALPAPIEKTISKAKGQPREPQVYTLPPSREEMTKNQVSLTCLVKGFYPSDIAVEWESNGQPENNYKTTPPVLDSDGSFFLYSRLTVDKSRWQQGNVFSCSVMHEALHNHYTQKSLSLSPGK light 2: QSVLTQPPSVSAAPGQKVTISCSGSSSNIGINYVSWYQQLPGTAPKLLIYDNNKRPSGIPDRFSGSKSGTSATLGITGLQTGDEADYYCGTWDSSLSAVVFGGGTKLTVLGQPKAAPSVTLFPPSSEELQANKATLVCLISDFYPGAVTVAWKADSSPVKAGVETTTPSKQSNNKYAASSYLSLTPEQWKSHRSYSCQVTHEGSTVEKTVAPTECS | 93% | 94% | 88% | 68% | 90% |

Source: patent US20240059789A1 (Janssen / Centocor, published 2024)
